Read-outs that look alike come from different tables or passages of the source.

Sequences and labels used below:
B1: VHA-c_(trunc) (third and fourth helices of VHA-c3) fused to CFP (domain or fragment, A. thaliana, UniProt P0DH93 80-164, looked up)
chain: NPKAKSYYLFDGYAHLSSGLACGLAGLSAGMAIGIVGDAGVRANAQQPKLFVGMILILIFAEALALYGLIVGIILSSRAGQSRAE
notes: VHA-c aa 80-164 (helices 3 and 4 of VHA-c3), A. thaliana; Intermediate construct of the hybrid in vector 35S-CFP-C; also called truncated VHA-c; truncated VHA-c-CFP; source: A. thaliana mesophyll protoplasts, transiently transfected, in living cells; not shown: CFP, C-terminal, kept
B2: VHA-c"_(trunc) (third and fourth helices of VHA-c"1) fused to CFP (domain or fragment, A. thaliana, UniProt Q9SZY7 88-180, looked up)
chain: QTKLESVPSSKMYDAESLRAGYAIFASGIIVGFANLVCGLCVGIIGSSCALSDAQNSTLFVKILVIEIFGSALGLFGVIVGIIMSAQATWPTK
notes: VHA-c"1 aa 88-180 (helices 3 and 4), A. thaliana; Intermediate construct of the hybrid in vector 35S-CFP-C; fused to the C-terminus of the fluorescent protein; also called truncated VHA-c"; VHA-c"1_(trunc); source: A. thaliana mesophyll protoplasts, transiently transfected, in living cells; not shown: CFP, N-terminal, kept
B3: VHA-c3 (V-ATPase proteolipid subunit c, isoform 3) fused to CFP or YFP (natural protein, A. thaliana, UniProt P0DH93 1-164, looked up)
chain: MSTFSGDETAPFFGFLGAAAALVFSCMGAAYGTAKSGVGVASMGVMRPELVMKSIVPVVMAGVLGIYGLIIAVIISTGINPKAKSYYLFDGYAHLSSGLACGLAGLSAGMAIGIVGDAGVRANAQQPKLFVGMILILIFAEALALYGLIVGIILSSRAGQSRAE
notes: VHA-c3, A. thaliana, At4g38920, open reading frame without the stop codon; One molecule for the CFP and the YFP fusion; vectors 35S-CFP-NosT and 35S-YFP-NosT; List of constructs in Additional file 4; also called VHA-c-CFP; VHA-c-YFP; source: A. thaliana mesophyll protoplasts, transiently transfected, in living cells; not shown: CFP or YFP, C-terminal, kept
B4: VHA-e1 (V-ATPase subunit e, isoform 1) fused to CFP or YFP (natural protein, A. thaliana, UniProt Q9FLN5 1-70, looked up)
chain: MGFLITTLIFVVVGIIASLCVRICCNRGPSTNLLHLTLVITATVCCWMMWAIVYIAQMNPLIVPILSETE
notes: VHA-e1, A. thaliana, At5g55290, open reading frame without the stop codon; One molecule for the CFP and the YFP fusion; also called VHA-e isoform 1; AtVHA-e1; source: A. thaliana mesophyll protoplasts, transiently transfected, in living cells; not shown: CFP or YFP, C-terminal, kept
B5: VHA-e2 (V-ATPase subunit e, isoform 2) fused to CFP or YFP (natural protein, A. thaliana, UniProt Q9SZ13 1-70, looked up)
chain: MAFVVTSLIFAVVGIIASICTRICFNKGPSTNLLHLTLVITATVCCWMMWAIVYIAQMNPLIVPILSEVE
notes: VHA-e2, A. thaliana, At4g26710, open reading frame without the stop codon; One molecule for the CFP and the YFP fusion; also called VHA-e isoform 2; VHA-e2-CFP; source: A. thaliana mesophyll protoplasts, transiently transfected, in living cells; not shown: CFP or YFP, C-terminal, kept

Common to all, as to test: FRET or BRET; in vivo FRET by sensitized acceptor emission (confocal laser scanning microscopy) in co-transfected A. thaliana mesophyll protoplasts; CFP fusion as donor, YFP fusion as acceptor; a FRET value of 8-10% is taken as background
Data set [1] deals with VHA-a-YFP (Mesembryanthemum crystallinum V-ATPase subunit a fused to YFP) (Mesembryanthemum crystallinum).
For data set [2] the target is unchanged. This is another data set of the same source.
Data set [3] has as its target B3. The following applies: partners not purified.
Data set [4] concerns the target T1, VHA-c"1 (V-ATPase proteolipid subunit c", isoform 1) fused to CFP or YFP (A. thaliana, UniProt Q9SZY7 1-180).
T1 construct: VHA-c"1, A. thaliana, At4g32530, open reading frame without the stop codon; One molecule for the CFP and the YFP fusion; also called VHA-c"-CFP; VHA-c"-YFP; source: A. thaliana mesophyll protoplasts, transiently transfected, in living cells; not shown: CFP or YFP, C-terminal, kept
T1 sequence (looked up): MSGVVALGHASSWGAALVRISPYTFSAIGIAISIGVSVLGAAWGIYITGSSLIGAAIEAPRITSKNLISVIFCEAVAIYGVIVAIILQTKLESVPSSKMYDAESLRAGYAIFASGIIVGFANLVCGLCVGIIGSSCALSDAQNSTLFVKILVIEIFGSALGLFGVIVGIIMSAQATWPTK
The following applies: partners not purified.

Data set [5] concerns the molecule itself.

For “VHA-A-CFP (V-ATPase catalytic subunit A fused to CFP) (from UniProt O23654 1-623) (natural protein)”, in data set [1], the FRET efficiency turned out to be 44.8.
For B1, the FRET efficiency in data set [2] is 40.2%; in data set [3] it was 40.3%; in data set [4], 46.2%.
Regarding B2, the FRET efficiency in data set [4] turned out to be 14.8%.
B3: the FRET efficiency in data set [5] worked out at 20.8%.
B4: the FRET efficiency in data set [2] was 20%; in data set [3], roughly 20%.
For the molecule B5, the results for the FRET efficiency in data set [2], in data set [3] and in data set [4] were 20%, roughly 20% and 20%, respectively.

(Values after publication PMC2424043, “Organelle-specific isoenzymes of plant V-ATPase as revealed by in vivo-FRET analysis” (BMC Cell Biology, 2008).)
